细胞阳性率 (percent positive cells) and 阳性率 (percent positive cells) data for 3 molecules are collected here from CN111748580A.

Experiment [1] concerns the target 全长的人CD226 (hCD226) on Jurkat cells (human) (UniProt Q15762). As to the kind of experiment: flow cytometry on Jurkat cells transfected with TIGIT and CD226.
Experiment [2] deals with CD33SP-OKT3scFv-CD28TC (鼠抗人CD3抗体 OKT3单链抗体, shown on CHO cells). Put plainly: flow cytometry, 40 nM Biotin-Protein L on CHO cells transfected with OKT3scFv, Streptavidin PE.
CD33SP-OKT3scFv-CD28TC (鼠抗人CD3抗体 OKT3单链抗体, shown on CHO cells), sequence (scFv, as listed by the source): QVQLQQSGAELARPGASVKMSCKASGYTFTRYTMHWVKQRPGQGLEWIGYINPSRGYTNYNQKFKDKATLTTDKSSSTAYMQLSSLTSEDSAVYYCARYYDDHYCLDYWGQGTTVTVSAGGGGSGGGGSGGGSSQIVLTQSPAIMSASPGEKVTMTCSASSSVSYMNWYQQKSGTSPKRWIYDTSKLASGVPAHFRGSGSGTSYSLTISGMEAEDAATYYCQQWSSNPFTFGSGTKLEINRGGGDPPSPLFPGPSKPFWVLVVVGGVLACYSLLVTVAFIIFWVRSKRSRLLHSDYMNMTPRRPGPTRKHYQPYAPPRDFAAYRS
The target in experiment [3] is T1, PVR (Poliovirus receptor) expressed on CHO-OKT3 cells (Homo sapiens (Human)) (UniProt P15151).
T1 sequence: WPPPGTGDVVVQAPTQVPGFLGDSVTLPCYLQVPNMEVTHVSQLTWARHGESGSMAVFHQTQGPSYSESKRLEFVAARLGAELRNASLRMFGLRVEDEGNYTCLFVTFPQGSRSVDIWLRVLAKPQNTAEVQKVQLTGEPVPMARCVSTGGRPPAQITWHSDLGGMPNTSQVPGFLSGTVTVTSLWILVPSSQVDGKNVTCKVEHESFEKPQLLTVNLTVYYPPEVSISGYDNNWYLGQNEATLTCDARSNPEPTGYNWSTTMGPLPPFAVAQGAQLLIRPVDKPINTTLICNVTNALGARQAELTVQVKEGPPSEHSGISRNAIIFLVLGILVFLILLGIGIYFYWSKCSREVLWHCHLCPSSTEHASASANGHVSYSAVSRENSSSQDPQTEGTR
Put plainly: flow cytometry, 40 nM TIGIT-Fc on CHO-OKT3 cells transfected with PVR, anti-human Fc-PE.

UniProt Q15762, sequence (Q15762 19-336 limits assumed): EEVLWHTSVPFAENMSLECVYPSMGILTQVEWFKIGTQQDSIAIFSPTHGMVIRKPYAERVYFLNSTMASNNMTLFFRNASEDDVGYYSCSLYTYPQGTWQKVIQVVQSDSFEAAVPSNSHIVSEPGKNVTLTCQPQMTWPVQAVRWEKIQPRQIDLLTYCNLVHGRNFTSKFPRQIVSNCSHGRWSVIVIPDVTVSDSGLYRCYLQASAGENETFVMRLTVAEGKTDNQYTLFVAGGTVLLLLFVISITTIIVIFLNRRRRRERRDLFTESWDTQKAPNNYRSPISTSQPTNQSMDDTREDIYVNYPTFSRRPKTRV

“anti-CD226 PE (R&D Systems, Inc. #FAB666P) (antibody)” gave a 细胞阳性率 (percent positive cells) in experiment [1] of 12.7%. For Biotin-Protein L (金斯瑞生物科技, 货号 M00097), in experiment [2], the 阳性率 (percent positive cells) was found to be 42.6%.

B1: TIGIT-Fc蛋白 (Fc fusion, UniProt Q495A1 22-141, looked up, not shown: a dimerising Fc or GST)
chain: MMTGTIETTGNISAEKGGSIILQCHLSSTTAQVTQVNWEQQDQLLAICNADLGWHISPSFKDRVAPGPGLGLTLQSLTVNDTGEYFCIYHTYPDGTYTGRIFLEVLESSVAEHGARFQIP
In experiment [3], B1 gave a 阳性率 (percent positive cells) of 93.2%.
